{"source": "paper PMC6698744", "binders": {"B1": {"name": "5'-AATCCrCAAA (ssDNA)", "DNA": "AATCCCAAA", "modifications": "ribocytidine at position 6, rest DNA"}, "B2": {"name": "5'-ATTCC(2'-F-RNA)CAATT (XNA)", "DNA": "ATTCCCAATT", "modifications": "2'-deoxy-2'-fluororibocytidine at position 6, rest DNA"}, "B3": {"name": "5'-AATCCCAAA (substrate) (ssDNA)", "DNA": "AATCCCAAA"}, "B4": {"name": "5'-ATTCC(2'-F-ANA)CAATT (XNA)", "DNA": "ATTCCCAATT", "modifications": "2'-deoxy-2'-fluoroarabinocytidine at position 6, rest DNA"}, "B5": {"name": "5'-AATCCdUAAA (intermediate product) (ssDNA)", "DNA": "AATCCUAAA", "modifications": "deoxyuridine at position 6"}}, "key": {"A3Gctd-2K3A-E259A [1]": {"biological_target": "T1, A3Gctd-2K3A-E259A (UniProt Q9HC16 191-384, L234K;C243A;E259A;F310K;C321A;C356A)", "T1 sequence (Q9HC16 191-384 L234K/C243A/E259A/F310K/C321A/C356A)": "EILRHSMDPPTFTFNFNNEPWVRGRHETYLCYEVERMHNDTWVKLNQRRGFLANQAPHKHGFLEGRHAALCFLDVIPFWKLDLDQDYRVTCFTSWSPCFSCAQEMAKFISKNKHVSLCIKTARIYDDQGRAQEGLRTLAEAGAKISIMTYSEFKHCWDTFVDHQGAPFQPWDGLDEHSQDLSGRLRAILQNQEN", "assay": "MST"}, "A3Gctd-2K3A-E259A [2]": {"biological_target": "T1, A3Gctd-2K3A-E259A", "assay": "MST", "remark": "listed apart in the source"}}, "note": "Like-named read-outs stand apart in the source and are kept apart here.", "data": [{"binder": "B1", "values": [{"measurement": "Kd", "setting": "A3Gctd-2K3A-E259A [1]", "value": "6650 ± 860", "unit": "µM"}]}, {"binder": "B2", "values": [{"measurement": "Kd", "setting": "A3Gctd-2K3A-E259A [1]", "value": "3760 ± 300", "unit": "µM"}]}, {"binder": "B3", "values": [{"measurement": "Kd", "setting": "A3Gctd-2K3A-E259A [1]", "value": "1570 ± 160", "unit": "µM"}]}, {"binder": "B4", "values": [{"measurement": "Kd", "setting": "A3Gctd-2K3A-E259A [2]", "value": "1740 ± 490", "unit": "µM"}]}, {"binder": "B5", "values": [{"measurement": "Kd", "setting": "A3Gctd-2K3A-E259A [1]", "value": "2170 ± 250", "unit": "µM"}]}]}
